Target: T1, ER-α / PI3-kinase p85α (Homo sapiens, UniProt P03372)
T1 construct: endogenous in cells; host or cells: human endothelial cells (HSVEC), anti-ERα immunoprecipitate
T1 sequence (P03372 1-595): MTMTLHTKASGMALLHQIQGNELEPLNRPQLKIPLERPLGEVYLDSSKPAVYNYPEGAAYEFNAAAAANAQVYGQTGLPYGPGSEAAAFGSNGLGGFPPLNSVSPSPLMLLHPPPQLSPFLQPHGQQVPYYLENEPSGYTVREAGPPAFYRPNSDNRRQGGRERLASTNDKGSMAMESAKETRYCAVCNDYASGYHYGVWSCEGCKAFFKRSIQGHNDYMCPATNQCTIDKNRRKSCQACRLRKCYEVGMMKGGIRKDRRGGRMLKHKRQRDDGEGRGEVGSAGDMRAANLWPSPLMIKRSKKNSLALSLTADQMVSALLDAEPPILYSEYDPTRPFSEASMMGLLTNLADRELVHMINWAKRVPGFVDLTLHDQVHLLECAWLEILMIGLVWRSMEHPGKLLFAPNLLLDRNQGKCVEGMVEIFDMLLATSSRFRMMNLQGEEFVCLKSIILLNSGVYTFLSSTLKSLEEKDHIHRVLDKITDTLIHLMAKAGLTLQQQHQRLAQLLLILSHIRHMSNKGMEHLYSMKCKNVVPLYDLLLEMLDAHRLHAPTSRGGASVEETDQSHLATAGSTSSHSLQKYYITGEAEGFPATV
Assay: ER-α immunoprecipitation: co-precipitated p85α and associated PI3-kinase activity
Type: cell-based
Settings: ER-α immunoprecipitate

## insulin: known activator of the PI3-kinase/Akt pathway
  stimulation of ER-α-associated PI3-kinase activity: did not increase or augment

Source: US6566081B1, “Methods of identifying a compound which modulates the non-transcriptional non-map-kinase induced effects of steroid hormones” (The Brigham and Women's Hospital, Inc., priority 1999, dated 2003)
